{"source": "paper PMC4342579", "about": "“A new cytoplasmic interaction between junctin and ryanodine receptor Ca^2+ release channels” (Journal of Cell Science, 2015)", "key": {"[1]": {"biological_target": "RyR1 purified from rabbit skeletal muscle (rabbit) (UniProt P11716)", "sequence (P11716 whole entry)": "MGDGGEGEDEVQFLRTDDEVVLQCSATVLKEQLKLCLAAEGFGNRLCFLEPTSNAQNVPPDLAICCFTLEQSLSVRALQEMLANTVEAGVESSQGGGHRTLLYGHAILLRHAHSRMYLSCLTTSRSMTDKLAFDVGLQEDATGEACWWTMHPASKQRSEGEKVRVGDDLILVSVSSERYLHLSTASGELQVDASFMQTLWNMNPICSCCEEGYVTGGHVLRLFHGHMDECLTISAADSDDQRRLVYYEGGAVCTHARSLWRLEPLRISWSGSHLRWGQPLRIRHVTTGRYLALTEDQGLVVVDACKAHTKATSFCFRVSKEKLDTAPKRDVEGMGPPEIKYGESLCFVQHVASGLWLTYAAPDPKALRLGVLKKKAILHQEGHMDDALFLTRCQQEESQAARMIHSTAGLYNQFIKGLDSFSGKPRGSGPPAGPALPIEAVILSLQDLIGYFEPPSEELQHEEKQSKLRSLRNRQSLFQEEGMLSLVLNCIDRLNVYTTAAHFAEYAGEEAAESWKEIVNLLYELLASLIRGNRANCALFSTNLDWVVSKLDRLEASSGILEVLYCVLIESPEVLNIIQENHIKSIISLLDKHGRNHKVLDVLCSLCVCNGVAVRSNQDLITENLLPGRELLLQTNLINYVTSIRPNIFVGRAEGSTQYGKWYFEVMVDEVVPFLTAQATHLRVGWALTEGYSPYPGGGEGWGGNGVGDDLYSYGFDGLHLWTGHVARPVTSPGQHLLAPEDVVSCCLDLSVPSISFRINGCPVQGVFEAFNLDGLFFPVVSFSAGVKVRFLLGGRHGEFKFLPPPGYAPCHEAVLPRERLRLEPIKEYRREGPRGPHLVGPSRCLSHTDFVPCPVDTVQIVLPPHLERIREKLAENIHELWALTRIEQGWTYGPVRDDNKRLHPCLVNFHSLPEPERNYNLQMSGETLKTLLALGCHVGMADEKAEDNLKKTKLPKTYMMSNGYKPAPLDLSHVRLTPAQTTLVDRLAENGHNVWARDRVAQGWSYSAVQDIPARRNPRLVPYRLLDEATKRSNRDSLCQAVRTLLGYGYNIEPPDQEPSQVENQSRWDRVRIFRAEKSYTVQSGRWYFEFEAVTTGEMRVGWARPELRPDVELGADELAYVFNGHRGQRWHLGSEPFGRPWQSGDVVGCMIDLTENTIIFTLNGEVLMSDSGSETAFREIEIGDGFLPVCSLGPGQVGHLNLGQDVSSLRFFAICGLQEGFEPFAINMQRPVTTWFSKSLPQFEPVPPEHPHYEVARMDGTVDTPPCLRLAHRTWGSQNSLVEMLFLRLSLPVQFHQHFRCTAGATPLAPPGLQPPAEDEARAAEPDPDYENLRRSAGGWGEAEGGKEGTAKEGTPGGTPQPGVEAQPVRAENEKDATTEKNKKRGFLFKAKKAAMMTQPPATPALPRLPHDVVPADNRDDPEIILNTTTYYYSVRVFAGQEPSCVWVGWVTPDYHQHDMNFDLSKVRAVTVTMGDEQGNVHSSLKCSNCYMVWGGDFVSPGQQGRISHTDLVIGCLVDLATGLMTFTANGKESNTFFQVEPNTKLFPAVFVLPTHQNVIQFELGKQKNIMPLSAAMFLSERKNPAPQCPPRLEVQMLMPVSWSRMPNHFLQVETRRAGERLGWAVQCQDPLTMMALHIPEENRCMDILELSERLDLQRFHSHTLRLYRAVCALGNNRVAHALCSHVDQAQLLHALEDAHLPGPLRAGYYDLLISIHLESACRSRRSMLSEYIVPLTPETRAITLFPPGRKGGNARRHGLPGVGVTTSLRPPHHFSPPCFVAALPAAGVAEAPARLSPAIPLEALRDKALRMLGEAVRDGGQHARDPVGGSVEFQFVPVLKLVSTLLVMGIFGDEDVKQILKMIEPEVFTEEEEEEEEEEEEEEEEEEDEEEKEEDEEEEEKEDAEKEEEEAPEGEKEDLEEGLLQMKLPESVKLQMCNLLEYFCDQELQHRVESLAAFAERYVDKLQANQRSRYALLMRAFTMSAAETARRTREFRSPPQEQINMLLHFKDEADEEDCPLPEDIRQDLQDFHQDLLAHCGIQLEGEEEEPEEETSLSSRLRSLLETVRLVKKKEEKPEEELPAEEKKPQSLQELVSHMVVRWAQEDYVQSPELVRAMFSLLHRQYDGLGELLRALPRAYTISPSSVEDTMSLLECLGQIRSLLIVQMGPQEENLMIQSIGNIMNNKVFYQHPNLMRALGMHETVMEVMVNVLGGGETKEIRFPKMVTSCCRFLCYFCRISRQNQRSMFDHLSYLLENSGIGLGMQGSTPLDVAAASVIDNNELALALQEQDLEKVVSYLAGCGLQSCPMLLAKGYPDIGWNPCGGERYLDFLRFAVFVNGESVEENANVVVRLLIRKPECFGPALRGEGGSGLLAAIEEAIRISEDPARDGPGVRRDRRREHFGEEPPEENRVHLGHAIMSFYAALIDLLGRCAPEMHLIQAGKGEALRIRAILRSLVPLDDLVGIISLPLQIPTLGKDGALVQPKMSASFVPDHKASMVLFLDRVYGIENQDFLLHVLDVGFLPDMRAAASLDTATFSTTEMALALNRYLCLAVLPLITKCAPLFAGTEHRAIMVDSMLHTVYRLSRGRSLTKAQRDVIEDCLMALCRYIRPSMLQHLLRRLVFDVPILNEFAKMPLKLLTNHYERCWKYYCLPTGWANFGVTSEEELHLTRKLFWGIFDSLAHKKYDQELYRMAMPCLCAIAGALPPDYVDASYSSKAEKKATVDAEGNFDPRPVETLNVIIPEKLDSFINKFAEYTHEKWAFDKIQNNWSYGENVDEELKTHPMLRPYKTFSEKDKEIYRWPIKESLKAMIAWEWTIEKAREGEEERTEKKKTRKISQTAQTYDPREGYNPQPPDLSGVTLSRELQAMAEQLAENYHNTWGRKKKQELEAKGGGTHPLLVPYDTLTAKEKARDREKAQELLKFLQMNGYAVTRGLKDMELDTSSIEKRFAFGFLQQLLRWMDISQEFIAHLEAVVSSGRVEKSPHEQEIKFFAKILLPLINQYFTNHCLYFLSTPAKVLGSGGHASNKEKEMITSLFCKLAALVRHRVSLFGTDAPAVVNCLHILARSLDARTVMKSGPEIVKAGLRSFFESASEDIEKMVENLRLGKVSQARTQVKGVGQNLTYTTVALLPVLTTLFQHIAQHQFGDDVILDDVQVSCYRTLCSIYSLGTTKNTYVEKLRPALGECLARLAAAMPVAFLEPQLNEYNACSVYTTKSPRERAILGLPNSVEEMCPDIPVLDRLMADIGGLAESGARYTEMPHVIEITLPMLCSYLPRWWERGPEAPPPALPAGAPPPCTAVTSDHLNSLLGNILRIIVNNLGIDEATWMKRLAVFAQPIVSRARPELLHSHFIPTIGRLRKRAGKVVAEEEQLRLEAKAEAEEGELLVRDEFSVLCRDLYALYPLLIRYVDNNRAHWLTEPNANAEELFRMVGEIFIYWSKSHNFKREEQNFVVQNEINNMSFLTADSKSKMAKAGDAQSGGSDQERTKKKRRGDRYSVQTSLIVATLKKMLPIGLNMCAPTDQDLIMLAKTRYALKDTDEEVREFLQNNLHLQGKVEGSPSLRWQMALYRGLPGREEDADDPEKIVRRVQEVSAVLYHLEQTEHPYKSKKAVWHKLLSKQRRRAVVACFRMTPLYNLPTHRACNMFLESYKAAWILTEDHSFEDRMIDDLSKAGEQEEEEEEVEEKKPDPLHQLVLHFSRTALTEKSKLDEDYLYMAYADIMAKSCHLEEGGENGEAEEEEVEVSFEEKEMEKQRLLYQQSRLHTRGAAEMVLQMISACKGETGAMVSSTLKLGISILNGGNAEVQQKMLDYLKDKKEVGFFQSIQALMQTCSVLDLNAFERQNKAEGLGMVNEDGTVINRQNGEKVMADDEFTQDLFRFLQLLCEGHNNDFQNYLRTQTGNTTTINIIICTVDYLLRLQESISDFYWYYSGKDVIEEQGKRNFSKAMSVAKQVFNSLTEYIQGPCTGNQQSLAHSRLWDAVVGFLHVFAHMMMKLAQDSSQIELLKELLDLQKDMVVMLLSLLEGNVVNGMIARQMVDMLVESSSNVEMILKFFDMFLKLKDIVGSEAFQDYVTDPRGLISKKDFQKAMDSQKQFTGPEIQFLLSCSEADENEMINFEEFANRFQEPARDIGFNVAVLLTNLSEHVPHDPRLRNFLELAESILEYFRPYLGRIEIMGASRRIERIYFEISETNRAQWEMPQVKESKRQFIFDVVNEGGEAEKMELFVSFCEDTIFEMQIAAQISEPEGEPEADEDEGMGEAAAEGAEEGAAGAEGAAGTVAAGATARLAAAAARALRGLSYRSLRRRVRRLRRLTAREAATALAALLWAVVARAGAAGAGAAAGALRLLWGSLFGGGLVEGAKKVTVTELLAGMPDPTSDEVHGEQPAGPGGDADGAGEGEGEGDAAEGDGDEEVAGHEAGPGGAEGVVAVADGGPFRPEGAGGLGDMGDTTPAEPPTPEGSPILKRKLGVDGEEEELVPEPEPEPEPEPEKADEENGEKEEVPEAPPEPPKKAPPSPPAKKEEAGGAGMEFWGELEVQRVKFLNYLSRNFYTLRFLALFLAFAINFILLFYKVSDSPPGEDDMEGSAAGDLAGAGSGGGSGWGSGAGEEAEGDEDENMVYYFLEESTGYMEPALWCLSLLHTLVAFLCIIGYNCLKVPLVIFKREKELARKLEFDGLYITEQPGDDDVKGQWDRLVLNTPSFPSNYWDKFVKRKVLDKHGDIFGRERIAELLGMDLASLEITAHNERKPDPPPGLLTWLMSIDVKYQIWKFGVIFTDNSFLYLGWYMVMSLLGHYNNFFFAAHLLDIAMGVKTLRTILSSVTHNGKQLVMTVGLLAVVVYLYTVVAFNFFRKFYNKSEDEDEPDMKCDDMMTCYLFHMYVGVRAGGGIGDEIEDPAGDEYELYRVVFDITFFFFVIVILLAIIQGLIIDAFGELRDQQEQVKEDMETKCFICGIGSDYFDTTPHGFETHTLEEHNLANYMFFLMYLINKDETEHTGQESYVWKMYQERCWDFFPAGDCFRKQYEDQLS"}, "[2]": {"biological_target": "RyR1 purified from rabbit skeletal muscle (rabbit) (UniProt P11716)", "remark": "listed apart in the source"}, "[3]": {"biological_target": "T1, full length recombinant mouse RyR2 (mouse, UniProt E9Q401 1-4966)", "T1 construct": "ryanodine receptor 2 (RyR2), mouse, recombinant; Cell line of Koop et al., 2008; also called recombinant RyR2", "test": "pull-down; NeutrAvidin–agarose affinity chromatography: biotinylated Njun or scrambled Njun on the agarose, recombinant RyR or RyR1 fragments (isolated from HEK293) incubated overnight at 4°C in PBS plus 0.1% SDS; RyR detected with 34C or anti-GFP antibody", "conditions": "both partners purified"}, "[4]": {"biological_target": "T2, RyR1 purified from rabbit skeletal muscle (rabbit, UniProt P11716 1-5037)", "T2 sequence (P11716 whole entry)": "as above", "test": "cell-based or functional assay"}, "[5]": {"biological_target": "T2, RyR1 purified from rabbit skeletal …", "test": "pull-down; affinity chromatography: biotinylated canine KEKE peptide on streptavidin–agarose, purified RyR1 or RyR2", "conditions": "both partners purified"}}, "note": "Ends that are not written are not given here. * marks the point of attachment. Biotin = O=C1N[C@H]2[C@H](CS[C@H]2CCCCC(=O)*)N1"}
{"molecule": "full-length junctin isolated from rabbit skeletal muscle (natural protein)", "values": [{"measurement": "open probability of purified RyR1 channels in lipid bilayers, 213 nM FLjun in the luminal solution, increase over control", "setting": "[1]", "result": 1.9, "unit": "fold"}]}
{"molecule": "C-terminal domain of canine junctin (amino acids 46–210), His6-tagged (domain or fragment)", "values": [{"measurement": "open probability (Po) of purified RyR1 channels in lipid bilayers, 213 nM Cjun in the luminal solution, relative to control", "setting": "[2]", "result": "0.68 of control"}]}
{"molecule": "Biotin-MAEETKHGGHKNGRKGGLSQSS (junctin, N-terminal cytoplasmic domain, residues 1-22; also called biotinylated Njun; junctin cytoplasmic domain; source: synthetic peptide)", "note": "[Njun peptide, N-terminal cytoplasmic domain of junctin (residues 1–22), biotinylated]", "values": [{"measurement": "binding result", "setting": "[3]", "result": "binds"}, {"measurement": "open probability of purified RyR1 channels in lipid bilayers, 213 nM Njun in the cytoplasmic solution, increase over control", "setting": "[4]", "result": 5, "unit": "fold"}]}
{"molecule": "Biotin-KRKTKAKVKELTKEELKKEKEK (junctin, canine, KEKE motif, residues 84-105; also called canine KEKE peptide; KEKE peptide; source: synthetic peptide)", "note": "[Cjun KEKE motif peptide (canine), residues 84–105, biotinylated]", "values": [{"measurement": "binding result", "setting": "[5]", "result": "binds"}]}
